According to the nanobody polyreactivity screen of Harvey et al. (2022):

Test: yeast display, Sf9 membrane polyspecificity reagent, FACS + sequencing; frameworks hold sequencing errors
Outline: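 Polyreactivity labels are assigned by the sorting gate from which each nanobody was recovered. The gates were low and high (top ~1%), set on anti-HA fluorescence for expression and streptavidin fluorescence for reagent binding. Before sorting, galactose-induced (36–48 hours) yeast display cells were stained for 1 hour at 4 °C with 10% biotinylated, detergent-solubilized Sf9 membrane reagent.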

Sequence | polyreactivity (PSR sort gate)
QVQLEETGGGLVHAGGILRLSCAASGIIYVVNAMGWYRQAPAKERELVAAISRNGGSTYYADSVKGRFTISRDNAKNTVYLQMNSLIPEDTAVYYCADRTVGRNAGFDYWGQVTQVTVSS | high polyreactivity
QVQLVESGGGLVQAGGSLRLSCAASGRTFPFYAMGWYRPAPGKERELVAAIHSGGITNYADSVKGRFTISRDNAKNTVYLQMNSLKPEDYAVYDCAALTAFYRERGYWGEGTQVTVSS | low polyreactivity
QVQLVESGGGLVQAGGSIRLSCAASGSIFRPYVMGWSRPAPGKERELVAAISSRGGDTYYADYVKGRFTISRDYAKNTVNVQMISLKPEDTAVYYCNARYYTSYDYWGQGSQVTVSS | low polyreactivity
QVQLVESGGGLVQAGGSLRLSCAASGFIFGYYAMGWYRQAPGKERELVAAISWSGVSTYYADSVKGRFTISSDNAKNTVDLQMNSLKPEDTAVYYCAVGYVLTGVFQARFDYWGQGTQVTVSS | high polyreactivity
QVQLVESGGGLVQAGGSLRLSCAASGRIFSVYTMGWYRKAPGKERELVATISSGGRTNYADSVKGRFTISRDNAKNTVYLQMNSLKPEDTAVYYCAAVPYGFVGYDDYWGQGTQVTVSS | low polyreactivity
QVQLVESGGGLVQAGGSLRLSCAASGRTFLRYTMGWYRQAPGKERELVASITRGGSTYYADSVKGRFTISRDNAKNTVYLQMNSLKPEDTAVYYCAVDVYGSHYYTGSLGKPDGYWGQGTQVTVSS | high polyreactivity
QVQLVESGGGLVQAGGSLRLSCAASGFTFKKNAMGWYRQATGKERELVAAIRSGTSTKYADSVKGRFTISRDNAKNTVYLQMNSLKPEDTAVYYCAAEEPEYLATWRNRRYDYWGQGTQVTVSS | low polyreactivity
QVQLVESGGGLVQAGGSLRLSCAASGRILNYNAMGWYRQAPGKERELVAAITSSGGSTYYADSVKGRFTISRDNAKNTVYLQMNSLKPEDTAVYYCNALITYSSDYWGQGTQVTVSS | low polyreactivity
QVQLVESGGGLVQAGGSLRLSCAASGSTFDYNTMGWYRQAPGKERELVAGIRSSGARTYYADSVKGRFTISRDNAKNTVYLQMNSLKPEDTAVYYCAKTDGFYRGYGYWGQGTQVTVSS | low polyreactivity
QVQLVESGGGLVQAGGSLRLSCAASGRTFYSYAMGWYRQAPGKERELVAGITWSGTSTYYADSVKGRFTISRDNAKNTVYLQMNSLKPEDTAVYYCAADSIQYTARPYDYWGQGTQVTVSS | low polyreactivity
QVQLVESGGGLDQAGGSLRLSCADSGITFSYYAMRWYRQAPGKERELVAAISSGGSKNYADSVKGRFTISRDNGKNTVYFQMNSLKPEDTEVYYCAATQQFWWAYRYDYWGQGTQVTVSS | low polyreactivity
QVHLVESGGGLVQAGGSLRLSCAASGSTFTYNTMGWYRQAPGKERELVAAITWSGGRTYYADSVKGRFTISRDNAKNTVYLQMNSLKPEDTAVYYCNADSSGVTSAYDYWGQGTQVTVSS | high polyreactivity
QFQLVESGGGLVQAGGSLRLSCAASGRTFVPYVMGWYRQAPGKERELVASITSGGSTYYADSVKGRFTISRDNAKNTVYLQMNSLNPEDTAVYYCATRQSAERWGYYYWGQGTQVTVSS | low polyreactivity
QVQLVETGGGLVQAGGSLRLSCAASGFIFYNAMGWYRQAPGKERELVAAISSGGNTNYADSVKGRFTISRDNAKNTVYLQMNSLKPEDTAVYYCNAGLYQYEAWAYYIRYDYWGQGTQVTVSS | low polyreactivity
QVQLVESGGGLVQAGGSLRLSCAASGRIFTVYGMGWYRQAPGKERELVAAISWSGGGTYYADSVKGRFTISRDNAKNTVYLHMNSLKPEDTAVYYCNADRQYTWSLVFFSSDYDYWGQGTQVTVSS | low polyreactivity
QVQLVESGGGLVQAGGSLRLSCAASGFIFWYYAMGWYRQAPGKERELVATITRGGSTYYADSVKGRFTISRDNAKNTFYLQMNSLKPEDTAVYYCNAVRPKIYDYWGQGTQVTVSS | high polyreactivity
QVQLVESGGGLLQAGGSLRLSCAASGRTFNKYAMGWYRKAPGIVRELVAAINYSGGRTYYADSVKGRFTISRDNAKNSVYLEMNSLKPEDTAVFYCAATPTFFVWQGYNYWGQGTQVTVSS | low polyreactivity
QVQLVESGGGLVQAGGSLRLSCAASGFILDYNAMGWSRQAPGKERELVASIDSGGGTNYADSVKGRFTISRDNAKNTVYLQMNSLKPEDTAVYYCAADVTLWYDYGGQGTQVTVSS | low polyreactivity
QVHLVESGGGLVQAGASLRLSCAASGSIFVGYAMGWYRQAPGKERELVASISSGDDTYADSVKGRFTISRDNAKNTVYLQMNSLKPEDTAVYYCAKDYISVDWAYDYWGQGTQVTVSS | low polyreactivity
QVQLVESGGGLVQAGGSLRLSCAASGRTFHVYAMGWYRQAPGKERELVAAITWSGDSTYYADSVKGRFTISRDNAKNTVYLQMNSLNTEDTAVYYCAASKFWKYDYWGQGTQVTVSS | low polyreactivity
QVQLVESGGGLVQAGGSLRLSCAASGFTFRWYAMGSYRQAPGKERELVAAISSSGGSTYYADSVKGRFTISRDNAKNTVYLQMNSLKPEDTAVYYCAAASLRPYQRAYGYEYWGQGTQVTVSS | high polyreactivity
QVQLVESGGGLVQAGGSLRLSCAASGIIFAFYAMGWYRQAPGKERELVATISKSGGRTYYADSVKGRFTISRDNAKNTVYLQMNSLNPEDTAVYYCAARIQYAFGADYYWGQGTQVTVSS | low polyreactivity

Sequence | polyreactivity (PSR sort gate)
QVQLVESGGGLVQAGGSLRLSCAASGSTNRAYAMGWYRQAPGKERELVAAISYSGDSTYYADSVKGRFTISRDNAKNTVYLQMNSLKPEVTAVYYCNTAVWGPHRYDYWGQGTQVTVSS | low polyreactivity
QVQLVESGGGLVQAGGSLRLSCAASGFTFWTYDMGWYRQAPGKERELVAAISTSGGSTYYADSVKGRFTISRDNAKNTVYLQMNSLKPEDTAVYYCAAYAIGEHFRARYGYWGQGTQVTVSS | high polyreactivity
QVQLVESGGGLVQAGGSLRLSCAASGSTFSTYAMGWYRQAPGKERELVARITVSVGSTYYADSVKGRFTMSRDNAKNTVYLQMNSLKPEDTAVYYCAVGSDEVYFVGDYEYWGQGTQVTVSS | low polyreactivity
QVQLVESGGGLVQAGGSLRLSCAASGFIFGYYTMGWYRQAPGKEREVVAAISSSGGRTYYADSVKGRFTISRDNAKNTVYLQMNSLKPEDTAVYYCAKQNRGSEPAYDYWGQGTQVTVSS | low polyreactivity
QVQLVESGGGLVQAGGSLRLICAASGRTFYVYAMAWYRQEPGKERELVAAISKSGGSTYYADSVKGRFTISRDNAKNSVYLPMNSLKPEDTAGYYCNRYRFVRQVRGGGLPYDYWGQGTQVTVSS | high polyreactivity
QVQLVESGGGLVQAGGSLRLSCAASGSSFRRNAMGWYRQAPGKERELVAAITRGGGSTYYADSVKGRFTISRDNAKNTVYLQMNSLKPEDTAVYYCAAQISATRETMDYWGQGTQVTVSS | high polyreactivity
QVQLVESGGGLVQAGGSLRLSCAASGSTFSLNDMGWYRQAPGKERQLVAAITGRGTRTYYADSVKGRFTISRDNAKNNVYLQMNSLKPEDTAVYYCAIDYPRGSPYGYNYWVQGTQVTVSS | high polyreactivity
QVQLVESGGGLVQAGGSLRLSCAASGRIFGYYAMGWYRQAPGKERELVAAITSGGRTYYADSVKGRFTISRDNAKNTVFLQMNSLKPEDTAVNYCAAVRALRKVRDYYYWGQGTQVTVSS | high polyreactivity
QVQLVESGGGLVQAGGSLRLSCAASGRTFFYYAMGWYRQATGKERELVAAITSSGGSTNYADSVKGRFTISRDNAKNTVYLQMNSLKPEDTAVYYCNRDRRLNRVPYFDYWGQGTQVTVSS | high polyreactivity
QVQLVESGGGLVQAGGSLRLSCAASGSTFLQNAMGWYRQAPGKEREFVAAISYTGANTYYADSVKGRFTISRDNAKNTVYLQMNSLKPEDTAVYYCNRYAKQYLSGTVPVNLDYWGQGTQVTVSS | high polyreactivity
QVQLVESGVGLVQAGGSLSLSCAPSGSTFTSYAMGWYRQAPGKEMELVAAITSRRGTYYADSVKGRFTISRDNAKNTVYLEMTSLKPEVTAVYYCAARAPYKKYPYVKWYDYWGQGTQVTVSS | high polyreactivity
QVQLVESGGGLVQAGGSLRLSCAASGITFYLYAMGWYRQAPGKERELVASITTDDSTNYADSVKGRFTISRDNAKNTVYLLMNSLKPEDTAVYYCATASYHRHHHGYDYWGQGTQVTVSS | low polyreactivity
QVQLVESGGGLVQAGGSLRLSCAASGRIVGRYVMGWYRQARGKERELVAAITSGGSTYYADSVKGRFTISRDNAKNTVYLQMNSLKPEDTAVYYCAAKWRSPRYYLYGYWGQGTQVTVSS | high polyreactivity
QVQLVESGGGLVQAGGSLRLSCAASGRIFSLNAMGWYRQAPGKERELVAGIRKRGGSTYYADSVKGRFTISRDNAKNTVYLQMNSLKPEHTAVYYCAAQPALTYRFYYWGQGTQVTVSS | high polyreactivity
QVQLVESGGGLVQAGGSLRLSCAASGSIYYRNAMGSYRQAPGKERELVAAISSTGSTYYADSVKGRFTISRDNAKNTVYLQMNSMKPEDTAVYYCAARQGYRSYRRYDSWGQGTQVTVSS | high polyreactivity
QVQLVESGGGLVQAGGSLRLSCAASGRIITYYAMGWYRQAPGKERELVAAISRTGGTTYYADSVKGRFTISRDNAKNTVYLQMNSLKPEDTAVYYWNAVKAPYLRYDYWGQGTQVTVSS | high polyreactivity
QVQLVESGGGLVQAGGSLRLSCPAPGRIFDRNAMGRYRQAPGKERELVAAISGSGGRTYYADSVKGRFTISRDNAKNTVYLQMNSLKPEDTAVYYCAASRKYGYGDWGQGTQVTVSS | high polyreactivity
QVQLVESGGGLVQAGGSLRLSCAASGSIFGIYAMGWYRQAPGKERELVAAISRSGGRTYYADSVKGRFTISRDNAKNTVYLQMNSLKPEDTAVYYCAARPPGGYLYDYWGQGTQVTVSS | high polyreactivity
QVQLVESGGGLVQAGGSLRLSCAASGFTFWPYAMGWYRQAPGKERELVAAITWSGGRTYYADSVKGRFTISRDNAKNTVYLQMNSLKPEDTAVYYCNVDAYGYRPYRYYYWGQGTQVTVSS | high polyreactivity
QVQLVESGGGLVQAGGSLRLSCAASGRIFYFNAMGWYRQAPGKEREFVASINSIGDSTYYADSVKGRFTISRDNAKNTVYLHMNSLKPEDTAVYYCNADHGVINYRLDYWGQGTQVTVSS | low polyreactivity
QFQLVESGGGLVQAGGSLRLSCAASGLIFRHYVMGWYRQAPGKERELVAAITSRGGTTYYADSVKGRFTISRDNEKNTVYLQMNIMKPEDTAVYYCNAVDIDPTRYEYDYWGQVTQVTVSS | high polyreactivity
